For this assay, the target named is human Myo5a globular domain, Myo5a (1467–1855) (human) (UniProt Q9Y4I1). The assay can be described thus: SPR; Biacore 3000, 25°C; Myo5a GD covalently immobilised on a CM5 chip (50–100 RU); steady-state binding with a multi-injection protocol, HMM 0–413 nM; 20 mM MOPS-KOH pH 7.0, 0.1 M NaCl, 2 mM MgCl2, 0.5 mM EGTA, 10 µM Calmodulin, 1 mM TCEP. In general terms: SPR reads the build-up and loss of mass on a sensor chip optically.
UniProt Q9Y4I1, sequence (Q9Y4I1 1467-1855): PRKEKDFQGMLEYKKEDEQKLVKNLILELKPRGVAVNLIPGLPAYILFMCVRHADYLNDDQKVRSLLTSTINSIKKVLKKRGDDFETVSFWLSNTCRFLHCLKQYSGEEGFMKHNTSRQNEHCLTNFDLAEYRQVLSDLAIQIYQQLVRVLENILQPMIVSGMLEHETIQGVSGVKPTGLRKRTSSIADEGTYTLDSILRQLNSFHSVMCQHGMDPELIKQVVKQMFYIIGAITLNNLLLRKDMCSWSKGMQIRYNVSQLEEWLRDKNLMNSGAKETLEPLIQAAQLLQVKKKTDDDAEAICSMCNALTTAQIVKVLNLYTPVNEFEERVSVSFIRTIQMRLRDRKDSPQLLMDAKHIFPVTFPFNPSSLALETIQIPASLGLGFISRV

As to “murine Myo5a HMM complex: Myo5a (1–1105) C-terminally fused to GCN4-Flag, coexpressed with essential light chains and calmodulins (from UniProt Q99104 1-1105; P0DP26 1-149)”, the Kd (as a rule, the constant that tells how readily two partners part at equilibrium) is 30 nM.

The values above are taken from PMC3858360.
